Data as given in PMC9483092.

Molecular target: DYK-tagged transmembrane serine protease 13 (TMPRSS13) stably expressed in HEK cells (HEK-T) (human) (UniProt Q9BYE2)
Experiment: co-IP; competition: 20 µg recombinant spike S2 fragment added to HEK-T cells 2 h before IL4I1; read-out IL4I1 co-precipitated with TMPRSS13-DYK

Sequence of UniProt Q9BYE2 (Q9BYE2 other isoform, or with tags, fused parts or gaps): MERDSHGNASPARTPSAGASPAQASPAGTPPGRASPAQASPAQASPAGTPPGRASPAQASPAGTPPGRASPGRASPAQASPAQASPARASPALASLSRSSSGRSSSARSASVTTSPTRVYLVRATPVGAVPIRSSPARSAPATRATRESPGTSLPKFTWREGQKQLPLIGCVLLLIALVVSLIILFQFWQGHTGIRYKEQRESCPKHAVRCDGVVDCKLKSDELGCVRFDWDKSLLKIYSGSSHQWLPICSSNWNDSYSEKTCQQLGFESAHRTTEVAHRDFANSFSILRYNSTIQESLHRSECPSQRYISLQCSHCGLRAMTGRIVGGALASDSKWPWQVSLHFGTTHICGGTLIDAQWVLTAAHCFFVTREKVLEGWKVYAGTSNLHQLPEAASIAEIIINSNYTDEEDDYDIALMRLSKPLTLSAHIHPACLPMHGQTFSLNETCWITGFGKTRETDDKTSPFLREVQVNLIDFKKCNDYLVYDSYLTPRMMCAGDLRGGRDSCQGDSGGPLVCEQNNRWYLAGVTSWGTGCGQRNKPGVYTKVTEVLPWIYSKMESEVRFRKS

For “recombinant S2 fragment of the SARS-CoV-2 spike protein (domain or fragment)”, which percent decrease of IL4I1 binding to TMPRSS13 with 20 µg S2 per 80 µg IL4I1 is on record?
Its percent decrease of IL4I1 binding to TMPRSS13 with 20 µg S2 per 80 µg IL4I1 is 50%.
